Test results as given in patent US8377884B2, “Variants of C-type natriuretic peptides” (Biomarin Pharmaceutical Inc., priority 2007, dated 2013).
Bridge positions count the residues as written; N and C are the ends. Peptide text beside a SMILES is read from it. * marks the point of attachment. CH3O(CH2CH2O)11CH2CH2CO = COCCOCCOCCOCCOCCOCCOCCOCCOCCOCCOCCOCCC(=O)*

Key:
Recombinant human NEP = Recombinant human NEP (Homo sapiens, UniProt P08473); assay: in vitro
Outline: (§1)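 Recombinant human NEP (1 ug/mL final) incubated with 100 uM CNP variant in 0.1 M Tris, pH 7, at 37° C for various times, then quenched with EDTA (10 mM final) and heat. Samples reduced and analysed by HPLC and mass spectrometry. Half-life derived from loss of intact variant over time.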

[1] = molecular target: neutral endopeptidase (NEP) (Homo sapiens, UniProt P08473); assay: In vitro neutral endopeptidase (NEP) cleavage assay; settings: human, recombinant human neutral endopeptidase (NEP), pH 7
Outline: as §1

NPR-B = molecular target: T1, NPR-B (Mus musculus, UniProt Q6VVW5); assay: Stimulation of cGMP production in NIH3T3 cells; type: cell-based, Murine; settings: NIH3T3 cells, normalized to cell number and cGMP production with 1 uM wtCNP22; for cGMP response relative to 1 uM CNP22 (%) at 0.01 µM: read-out: cGMP Response rel. to 1 uM CNP22, 10 nM; for cGMP response relative to 1 uM CNP22 (%) at 1 µM: read-out: cGMP Response rel. to 1 uM CNP22, 1 uM
T1 construct: Murine NIH3T3 cells express endogenously the CNP signaling receptor, NPR-B; endogenous in cells; host or cells: NIH3T3 (murine fibroblasts)
T1 sequence (Q6VVW5 17-1047): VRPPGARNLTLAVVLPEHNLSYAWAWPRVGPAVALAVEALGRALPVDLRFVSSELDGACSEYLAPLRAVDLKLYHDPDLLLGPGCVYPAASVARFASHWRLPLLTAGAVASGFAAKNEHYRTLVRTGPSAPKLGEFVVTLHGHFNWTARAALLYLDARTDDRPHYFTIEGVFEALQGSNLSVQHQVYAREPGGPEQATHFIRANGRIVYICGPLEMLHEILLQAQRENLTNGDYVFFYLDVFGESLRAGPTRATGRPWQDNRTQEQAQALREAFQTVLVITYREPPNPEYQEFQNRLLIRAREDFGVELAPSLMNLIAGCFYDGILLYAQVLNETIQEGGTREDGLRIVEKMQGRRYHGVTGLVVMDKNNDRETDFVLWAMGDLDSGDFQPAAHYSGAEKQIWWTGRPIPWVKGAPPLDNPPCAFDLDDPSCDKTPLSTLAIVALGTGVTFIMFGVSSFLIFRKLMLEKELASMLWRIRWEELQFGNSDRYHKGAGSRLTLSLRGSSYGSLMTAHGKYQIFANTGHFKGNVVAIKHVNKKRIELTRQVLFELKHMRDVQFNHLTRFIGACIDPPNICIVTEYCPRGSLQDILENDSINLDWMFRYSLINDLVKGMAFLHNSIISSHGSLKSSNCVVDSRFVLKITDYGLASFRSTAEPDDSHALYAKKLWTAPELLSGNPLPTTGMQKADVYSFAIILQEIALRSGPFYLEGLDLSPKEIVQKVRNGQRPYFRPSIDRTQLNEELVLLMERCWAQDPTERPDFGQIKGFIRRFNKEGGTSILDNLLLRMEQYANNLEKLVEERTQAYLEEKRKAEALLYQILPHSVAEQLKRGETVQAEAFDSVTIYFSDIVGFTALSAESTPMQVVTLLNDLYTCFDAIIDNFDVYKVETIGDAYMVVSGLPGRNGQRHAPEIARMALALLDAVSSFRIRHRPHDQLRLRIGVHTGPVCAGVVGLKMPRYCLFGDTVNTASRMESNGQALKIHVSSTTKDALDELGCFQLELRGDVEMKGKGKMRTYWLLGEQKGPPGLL

Recombinant human NEP, sequence (P08473 whole entry): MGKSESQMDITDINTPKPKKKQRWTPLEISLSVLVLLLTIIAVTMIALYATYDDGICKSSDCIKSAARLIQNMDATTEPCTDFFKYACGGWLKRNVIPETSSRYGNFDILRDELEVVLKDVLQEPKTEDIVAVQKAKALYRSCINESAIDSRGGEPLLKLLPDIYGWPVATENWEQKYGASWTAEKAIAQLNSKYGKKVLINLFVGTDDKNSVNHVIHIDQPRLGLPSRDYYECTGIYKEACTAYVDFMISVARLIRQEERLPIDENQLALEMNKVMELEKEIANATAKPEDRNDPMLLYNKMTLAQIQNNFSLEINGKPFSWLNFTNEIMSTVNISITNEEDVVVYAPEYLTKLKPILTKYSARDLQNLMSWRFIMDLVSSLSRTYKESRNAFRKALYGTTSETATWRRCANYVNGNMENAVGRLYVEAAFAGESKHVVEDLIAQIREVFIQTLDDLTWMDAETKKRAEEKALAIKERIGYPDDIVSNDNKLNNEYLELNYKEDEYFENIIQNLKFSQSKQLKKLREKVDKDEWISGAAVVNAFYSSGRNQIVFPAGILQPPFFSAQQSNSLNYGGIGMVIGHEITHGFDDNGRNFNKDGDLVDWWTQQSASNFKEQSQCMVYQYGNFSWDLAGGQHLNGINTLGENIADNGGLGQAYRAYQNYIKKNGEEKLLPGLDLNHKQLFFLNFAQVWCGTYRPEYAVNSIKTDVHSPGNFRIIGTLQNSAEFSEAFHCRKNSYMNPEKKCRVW
neutral endopeptidase (NEP), sequence (P08473 whole entry): as above

cGMP Response rel. to 1 uM CNP22, 10 nM (NPR-B; 10 nM natriuretic peptide) | cGMP Response rel. to 1 uM CNP22, 1 uM (NPR-B; 1 uM natriuretic peptide) | cGMP response relative to 1 uM CNP22 (%) at 0.01 µM (NPR-B; 10 nM natriuretic peptide) | cGMP response relative to 1 uM CNP22 (%) at 1 µM (NPR-B; 1 uM natriuretic peptide) | Compound | resistance to NEP cleavage/degradation (in words) (Recombinant human NEP) | half-life at 100 uM [1] | NEP Cleavage (t1/2, min) (Recombinant human NEP; pH 7)
 |  |  |  | CC[C@H](C)[C@@H]1NC(=O)[C@H](CCCNC(=N)N)NC(=O)[C@H](CC(=O)O)NC(=O)[C@H](CC(C)C)NC(=O)[C@H](CCCCN)NC(=O)[C@H](CC(C)C)NC(=O)CNC(=O)[C@H](Cc2ccccc2)NC(=O)[C@@H](NC(=O)CNC(=O)[C@H](CCCNC(=N)N)NC(=O)[C@H](CO)NC(=O)[C@H](CC(C)C)NC(=O)CNC(=O)[C@H](CCCNC(=N)N)NC(=O)[C@@H]2CCCN2C(=O)[C@H](CC(N)=O)NC(=O)[C@H](C)NC(=O)CNC(=O)CCOCCOCCOCCOCCOCCOCCOCCOCCOCCOCCOCCOC)CSSC[C@@H](C(=O)O)NC(=O)CNC(=O)[C@H](CC(C)C)NC(=O)CNC(=O)[C@H](CO)NC(=O)[C@H](CCSC)NC(=O)[C@H](CO)NC(=O)CNC1=O [PEO12-GANPR-CNP22, K4R] ({CH3O(CH2CH2O)11CH2CH2CO}-GANPRGLSRGCFGLKLDRIGSMSGLGC-OH; disulfide 11-27; C-terminus assumed) | same half-life as wtCNP22 | 1.33 h | 
8 ± 1 | 20 ± 7 |  |  | PEG5K-CNP22: CNP22 conjugated at the N-terminus to polydispersed PEG5K | resistant to NEP degradation over the assay period of 160 minutes |  | >>160 min
 |  | 25% | 102% | CC[C@H](C)[C@@H]1NC(=O)[C@H](CCCNC(=N)N)NC(=O)[C@H](CC(=O)O)NC(=O)[C@H](CC(C)C)NC(=O)[C@H](CCCCN)NC(=O)[C@H](CC(C)C)NC(=O)CNC(=O)[C@H](Cc2ccccc2)NC(=O)[C@@H](NC(=O)CNC(=O)[C@H](CO)NC(=O)CNC(=O)[C@H](CCC(N)=O)NC(=O)[C@@H](NC(=O)[C@H](CCSC)NC(=O)[C@H](CCCCN)NC(=O)[C@@H]2CCCN2C(=O)[C@@H](N)CO)C(C)C)CSSC[C@@H](C(=O)N[C@@H](CCCCN)C(=O)N[C@H](C(=O)N[C@@H](CC(C)C)C(=O)N[C@@H](CCCNC(=N)N)C(=O)N[C@@H](CCCNC(=N)N)C(=O)N[C@@H](Cc2c[nH]cn2)C(=O)O)C(C)C)NC(=O)CNC(=O)[C@H](CC(C)C)NC(=O)CNC(=O)[C@H](CO)NC(=O)[C@H](CCSC)NC(=O)[C@H](CO)NC(=O)CNC1=O [CD] (H-SPKMVQGSGCFGLKLDRIGSMSGLGCKVLRRH-OH; disulfide 10-26 (inferred); N-terminus and C-terminus assumed) | much more resistant to NEP cleavage than CNP22 |  | 
 |  | 15% | 87% | CC[C@H](C)[C@@H]1NC(=O)[C@H](CCCNC(=N)N)NC(=O)[C@H](CC(=O)O)NC(=O)[C@H](CC(C)C)NC(=O)[C@H](CCCCN)NC(=O)[C@H](CC(C)C)NC(=O)CNC(=O)[C@H](Cc2ccccc2)NC(=O)[C@@H](NC(=O)CNC(=O)[C@H](CCCCN)NC(=O)[C@H](CO)NC(=O)[C@H](CC(C)C)NC(=O)CNC(=O)[C@H](CCC(N)=O)NC(=O)[C@H](CO)NC(=O)[C@H](CC(C)C)NC(=O)[C@H](CCCNC(=N)N)NC(=O)[C@H](C)NC(=O)[C@@H](NC(=O)[C@H](C)NC(=O)[C@H](Cc2c[nH]c3ccccc23)NC(=O)[C@H](C)NC(=O)[C@H](CCCCN)NC(=O)[C@H](Cc2ccccc2)NC(=O)[C@H](C)NC(=O)[C@H](CCCNC(=N)N)NC(=O)[C@H](CCC(=O)O)NC(=O)CN)C(C)C)CSSC[C@@H](C(=O)O)NC(=O)CNC(=O)[C@H](CC(C)C)NC(=O)CNC(=O)[C@H](CO)NC(=O)[C@H](CCSC)NC(=O)[C@H](CO)NC(=O)CNC1=O [CE] (H-GERAFKAWAVARLSQGLSKGCFGLKLDRIGSMSGLGC-OH; disulfide 21-37 (inferred); N-terminus and C-terminus assumed) | much more resistant to NEP cleavage than CNP22 |  | 
